Assay results: patent publication US20210403579A1 (DELINIA, published 2021)

T1: Human ST2 (human, UniProt Q01638 19-328, limits assumed)
T1 construct: also called human ST2 protein; Interleukin 1 receptor-like 1
T1 sequence (looked up): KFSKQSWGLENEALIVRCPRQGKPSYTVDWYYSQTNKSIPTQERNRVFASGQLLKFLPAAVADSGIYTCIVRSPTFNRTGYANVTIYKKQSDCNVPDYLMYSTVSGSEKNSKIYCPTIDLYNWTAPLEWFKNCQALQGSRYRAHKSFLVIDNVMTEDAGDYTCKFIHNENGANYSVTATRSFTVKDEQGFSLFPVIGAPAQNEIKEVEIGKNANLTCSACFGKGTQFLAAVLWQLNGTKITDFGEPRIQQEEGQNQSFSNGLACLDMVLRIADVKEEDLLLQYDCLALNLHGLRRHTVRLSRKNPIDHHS


Molecular target: T1, Human ST2
Assay: SPR (Carterra), antibody immobilized, ST2 analyte
Description: Binding of the reformatted human ST2 antibodies to the human and mouse ST2 proteins was evaluated by surface plasmon resonance (SPR), using a high throughput antibody screening and characterization platform from Carterra (Salt Lake City, Utah).

Kd [nM] | koff [s⁻¹] | kon [M⁻¹ s⁻¹] | Binder
41 | 0.029 | 720000 | Human ST2 IgG1 Antibody 86 (antibody, V domains shown, IgG1; also called ST2 Antibody 86) VH: QVQLVQSGAEVKKPGSSVKVSCKASGGTFSNYAISWVRQAPGQGLEWMGGIIPIFGTANYAQKFQGRVTITADESTSTAYMELSSLRSEDTAVYYCAKDLGGWFNLFDPWGQGTLVTVSS VL: EIVMTQSPATLSVSPGERATLSCRASQGVSSYLAWYQQKPGQAPRLLIYGASTRATGIPARFSGSGSGTEFTLTISSLQSEDFAVYYCQQYRSFPLTFGGGTKVEIKR
842 | 0.056 | 67000 | Human ST2 IgG1 Antibody 80 (antibody, V domains shown, IgG1; also called ST2 Antibody 80) VH: QVQLVQSGAEVKKPGSSVKVSCKASGGTFSSYAISWVRQAPGQGLEWMGGIIPIFGTANYAQKFQGRVTITADESTSTAYMELSSLRSEDTAVYYCARVMVAGTGYYFDYWGQGTLVTVSS VL: DIVMTQSPLSLPVTPGEPASISCRSSQSLLHSNGYNYLDWYLQKPGQSPQLLIYGASSLQSGVPDRFSGSGSGTDFTLKISRVEAEDVGVYYCMQGLHTPPTFGQGTKLEIKR
970 | 0.17 | 170000 | Human ST2 IgG1 Antibody 90 (antibody, V domains shown, IgG1; also called ST2 Antibody 90) VH: QVQLVQSGAEVKKPGSSVKVSCKASGYTFSDFSIHWVRQAPGQGLEWMGGMLPISHIAHYARKFQGRVTITADESTSTAYMELSSLRSEDTAVYYCARGGSSGWFEVWGQGTTVTVSS VL: DIVMTQSPLSLPVTPGEPASISCRSSQSLLHSNGYNYLDWYLQKPGQSPQLLIYAASTLQSGVPDRFSGSGSGTDFTLKISRVEAEDVGVYYCMQGAHWPPTFGQGTKLEIKR
125 | 0.0019 | 15000 | Human ST2 IgG1 Antibody 84 (antibody, V domains shown, IgG1; also called ST2 Antibody 84) VH: QVQLVQSGAEVKKPGSSVKVSCKASGGTFSSYALSWVRQAPGQGLEWMGGIIPIFGTANYAQKFQGRVTITADESTSTAYMELSSLRSEDTAVYYCARAAAAGTAWYFDLWGRGTLVTVSS VL: not shown
728 | 0.11 | 150000 | Human ST2 IgG1 Antibody 93 (antibody, V domains shown, IgG1; also called ST2 Antibody 93) VH: QVQLVQSGAEVKKPGSSVKVSCKASGGTFSTYAISWVRQAPGQGLEWMGGIIPSFNAPSYAQKFQGRVTITADKSTSTAYMELSSLRSEDTAVYYCARVVPAAIVGWYFDLWGRGTLVTVSS VL: DIVMTQSPLSLPVTPGEPASISCRSSQSLLHSNGYNYLDWYLQKPGQSPQLLIYAASTLQTGVPDRFSGSGSGTDFTLKISRVEAEDVGVYYCMQALQTPPTFGQGTKVEIKR
662 | 0.13 | 200000 | Human ST2 IgG1 Antibody 92 (antibody, V domains shown, IgG1; also called ST2 Antibody 92) VH: QVQLVQSGAEVKKPGSSVKVSCKASGGSFSGQAVNWVRQAPGQGLEWMGGFVSLFGTANYAQKFQGRVTITADESTSTAYMELSSLRSEDTAVYYCARDREGLGWYFDLWGRGTLVTVSS VL: not shown
256 | 0.041 | 160000 | Human ST2 IgG1 Antibody 91 (antibody, V domains shown, IgG1; also called ST2 Antibody 91) VH: EVQLLESGGGLVKPGGSLRLSCAASGFTFSSYWMSWVRQAPGKGLEWVSVIYSGGSTYYADSVKGRFTISRDDSKNTLYLQMNSLKTEDTAVYYCARGLGWFDPWGQGTLVTVSS VL: DIQMTQSPSSLSASVGDRVTITCQANQHIGNSLNWYQQKPGKAPKLLIFAASRLQSGVPSRFSGSGSGTDFTLTISSLQPEDFATYYCQQSYGTPLTFGGGTKVEIKR
154 | 0.082 | 530000 | Human ST2 IgG1 Antibody 78 (antibody, V domains shown, IgG1; also called ST2 Antibody 78) VH: EVQLLESGGGLVQPGGSLRLSCAASDFNFKNAWMSWVRQAPGKGLEWVSAISGNGAGTYYADSVKGRFTISRDNSKNTLYLQMNSLRAEDTAVYYCARVGETGAFDIWGQGTTVTVSS VL: not shown
126 | 0.026 | 200000 | Human ST2 IgG1 Antibody 81 (antibody, V domains shown, IgG1; also called ST2 Antibody 81) VH: EVQLLESGGGLVKPGGSLRLSCAASGFTFSSYWMSWVRQAPGKGLEWVSSISSSGNYMYYAVSVKGRFTISRDDSKNTLYLQMNSLKTEDTAVYYCATETYSYSSMDVWGQGTTVTVSS VL: DIQMTQSPSSLSASVGDRVTITCRASQSISSYLNWYQQKPGKAPKLLIYDASNLETGVPSRFSGSGSGTDFTLTISSLQPEDFATYYCQQSYGTPLTFGGGTKVDIKR
102 | 0.024 | 240000 | Human ST2 IgG1 Antibody 89 (antibody, V domains shown, IgG1; also called ST2 Antibody 89) VH: EVQLLESGGGLVKPGGSLRLSCAASGFTFSSYWMSWVRQAPGKGLEWVSAISGTAINTYYADSVKGRFTISRDDSKNTLYLQMNSLKTEDTAVYYCARVRRDSSGGGAFDIWGQGTMVTVSS VL: DIQMTQSPSSLSASVGDRVTITCRASQGISNNLNWYQQKPGKAPKLLIYAASSLQTGVPSRFSGSGSGTDFTLTISSLQPEDFATYYCQQSYSTPPTFGQGTKVEIKR
204 | 0.003 | 15000 | Human ST2 IgG1 Antibody 82 (antibody, V domains shown, IgG1; also called ST2 Antibody 82) VH: QVQLVQSGAEVKKPGASVKVSCKASGYTFTENEMHWVRQAPGQGLEWMGWISAYNGDTNYAQKFQGRVTMTRDTSTSTVYMELSSLRSEDTAVYYCAKEVRLDDDEMWYFDLWGRGTLVTVSS VL: DIQMTQSPSSLSASVGDRVTITCRASQDINNFLVWYQQKPGKAPKLLIYDASNLETGVPSRFSGSGSGTDFTLTISSLQPEDFATYYCQQAYSFPLTFGGGTKVEIKR
642 | 0.018 | 27000 | Human ST2 IgG1 Antibody 87 (antibody, V domains shown, IgG1; also called ST2 Antibody 87) VH: QVQLVQSGAEVKKPGASVKVSCKASGYTFAGQYMHWVRQAPGQGLEWMGNINPSGGSTSYAQRFQGRVTMTRDTSTSTVYMELSSLRSEDTAVYYCARGDYSETYYYYMDVWGKGTTVTVSS VL: DIQMTQSPSSLSASVGDRVTITCRASQHINSNLNWYQQKPGKAPKLLIYGASSLQSGVPSRFSGSGSGTDFTLTISSLQPEDFATYYCQQSYTTPFTFGPGTKVDIKR
70 | 0.018 | 260000 | Human ST2 IgG1 Antibody 83 (antibody, V domains shown, IgG1; also called ST2 Antibody 83) VH: EVQLLESGGGLVKPGGSLRLSCAASGFTFSSYWMSWVRQAPGKGLEWVSAIGTAGDTYYPGSVKGRFTISRDDSKNTLYLQMNSLKTEDTAVYYCAILRRDKVWPFDYWGQGTLVTVSS VL: DIQMTQSPSSLSASVGDRVTITCRASQSISSHLHWYQQKPGKAPKLLIYAASSLQSGVPSRFSGSGSGTDFTLTISSLQPEDFATYYCQQSYSSPVTFGGGTKVEIKR
483 | 0.062 | 130000 | Human ST2 IgG1 Antibody 94 (antibody, V domains shown, IgG1; also called ST2 Antibody 94) VH: QVQLVQSGAEVKKPGSSVKVSCKASGGILNSYAITWVRQAPGQGLEWMGRIIPILGIANYAQKFQGRVTITADESTSTAYMELSSLRSEDTAVYYCVENESGPLFDYWGQGTLVTVSS VL: EIVMTQSPATLSVSPGERATLSCRASQSVYSSYLAWYQQKPGQAPRLLIYGTSSRAAGIPARFSGSGSGTEFTLTISSLQSEDFAVYYCQQYYSTPYTFGQGTKVEIKR
554 | 0.068 | 120000 | Human ST2 IgG1 Antibody 85 (antibody, V domains shown, IgG1; also called ST2 Antibody 85) VH: EVQLLESGGGLVQPGGSLRLSCAASGFSFSTYWMHWVRQAPGKGLEWVSGISGGGIYTYYADSVKGRFTISRDNSKNTLYLQMNSLRAEDTAVYYCASMTYGDYYGMDVWGQGTTVTVSS VL: not shown
543 | 0.13 | 240000 | Human ST2 IgG1 Antibody 88 (antibody, V domains shown, IgG1; also called ST2 Antibody 88) VH: EVQLLESGGGLVQPGGSLRLSCAASGFTFSSYWMSWVRQAPGKGLEWVSSISSSGGYLYYADSVKGRFTISRDNSKNTLYLQMNSLRAEDTAVYYCARDWGLTPDYWGQGTLVTVSS VL: not shown
